In series [1] the target is T1, MBP-Mos-1 transposase (MBP-Tnp) (Drosophila mauritiana, UniProt Q7JQ07 SEQ:1-345).
T1 sequence: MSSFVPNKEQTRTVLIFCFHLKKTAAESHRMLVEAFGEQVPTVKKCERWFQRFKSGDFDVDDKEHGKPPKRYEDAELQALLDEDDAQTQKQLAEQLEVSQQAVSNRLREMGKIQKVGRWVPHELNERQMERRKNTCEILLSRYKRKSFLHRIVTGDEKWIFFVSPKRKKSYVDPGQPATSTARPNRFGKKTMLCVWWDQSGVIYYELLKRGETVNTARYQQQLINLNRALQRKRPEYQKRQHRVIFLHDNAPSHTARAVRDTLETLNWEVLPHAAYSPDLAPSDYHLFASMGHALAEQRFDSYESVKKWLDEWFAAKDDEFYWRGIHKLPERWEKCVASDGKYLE
Kind of series: EMSA. As to conditions: complex stability versus ITR alone; MBP tag assumed. On the technique in general: In EMSA bound probe runs differently from free probe, usually more slowly.

In series [2] the target is T1, MBP-Mos-1 transposase (MBP-Tnp). To be noted: active protein (Bmax) versus ITR3'; same Kd as ITR3'; inventors' prior research.
The target is the same in series [3]. Nature of the series: EMSA; clone number to SEQ mapping not given. To be noted: tags: N-terminal MBP (pMalC2x); chain copies: 2.

From US20100291682, “SYSTEM FOR TRANSPOSING HYPERACTIVE RECOMBINANT DERIVATIVES OF MOS-1 TRANSPOSON” (published 2010) come the findings set out here.

Read-outs that look alike come from different tables or passages of the source.

In series [1], ITR3'/UTR3' returned a binding signal of 4 fold.
In series [2], Mos-1 ITR5' registered a binding signal of 0.1 fold.
In the case of ITR3'/UTR5', in series [1], the binding signal amounted to 4 fold.

B1: ITRSelex SEQ 43 (dsDNA)
DNA 1: GGAGAAATGGTAGAATAGTTTA
DNA 2: TAAACTATTCTACCATTTCTCC
For the molecule B1, the binding result in series [3] is given as “binds”.

B2: ITRSelex SEQ 42 (dsDNA)
DNA 1: CGATTACAATTATGAAAACTTTCCT
DNA 2: AGGAAAGTTTTCATAATTGTAATCG
For B2, the binding result in series [3] is “binds”.

B3: ITRSelex SEQ 44 (dsDNA)
DNA 1: ATAGTGTTTAAAGCTTACT
DNA 2: AGTAAGCTTTAAACACTAT
As to B3, in series [3], the binding result was “binds”.

B4: ITRSelex SEQ 41 (dsDNA)
DNA 1: GAAGAGTTATAACTCAAGAAAACTGAAT
DNA 2: ATTCAGTTTTCTTGAGTTATAACTCTTC
For B4, the binding result in series [3] is listed as “binds”.

B5: ITRSelex SEQ 40 (dsDNA)
DNA 1: GCGGGTGTGAAAATATGAAATATTCACT
DNA 2: AGTGAATATTTCATATTTTCACACCCGC
B5: the binding result in series [3] is “binds”.

B6: ITRSelex SEQ 45 (dsDNA)
DNA 1: GTCAGTGATGTCACCAACGTATGGAATATCGTAT
DNA 2: ATACGATATTCCATACGTTGGTGACATCACTGAC
On to B6, for which the binding result in series [3] is “binds”.
